Data from IntAct's records for PubMed 21889351.

B1: Programmed cell death 6-interacting protein (Homo sapiens), Q8WUM4 (parent)
chain: MATFISVQLKKTSEVDLAKPLVKFIQQTYPSGGEEQAQYCRAAEELSKLRRAAVGRPLDKHEGALETLLRYYDQICSIEPKFPFSENQICLTFTWKDAFDKGSLFGGSVKLALASLGYEKSCVLFNCAALASQIAAEQNLDNDEGLKIAAKHYQFASGAFLHIKETVLSALSREPTVDISPDTVGTLSLIMLAQAQEVFFLKATRDKMKDAIIAKLANQAADYFGDAFKQCQYKDTLPKEVFPVLAAKHCIMQANAEYHQSILAKQQKKFGEEIARLQHAAELIKTVASRYDEYVNVKDFSDKINRALAAAKKDNDFIYHDRVPDLKDLDPIGKATLVKSTPVNVPISQKFTDLFEKMVPVSVQQSLAAYNQRKADLVNRSIAQMREATTLANGVLASLNLPAAIEDVSGDTVPQSILTKSRSVIEQGGIQTVDQLIKELPELLQRNREILDESLRLLDEEEATDNDLRAKFKERWQRTPSNELYKPLRAEGTNFRTVLDKAVQADGQVKECYQSHRDTIVLLCKPEPELNAAIPSANPAKTMQGSEVVNVLKSLLSNLDEVKKEREGLENDLKSVNFDMTSKFLTALAQDGVINEEALSVTELDRVYGGLTTKVQESLKKQEGLLKNIQVSHQEFSKMKQSNNEANLREEVLKNLATAYDNFVELVANLKEGTKFYNELTEILVRFQNKCSDIVFARKTERDELLKDLQQSIAREPSAPSIPTPAYQSSPAGGHAPTPPTPAPRTMPPTKPQPPARPPPPVLPANRAPSATAPSPVGAGTAAPAPSQTPGSAPPPQAQGPPYPTYPGYPGYCQMPMPMGYNPYAYGQYNMPYPPVYHQSPGQAPYPGPQQPSYPFPQPPQQSYYPQQ
partner: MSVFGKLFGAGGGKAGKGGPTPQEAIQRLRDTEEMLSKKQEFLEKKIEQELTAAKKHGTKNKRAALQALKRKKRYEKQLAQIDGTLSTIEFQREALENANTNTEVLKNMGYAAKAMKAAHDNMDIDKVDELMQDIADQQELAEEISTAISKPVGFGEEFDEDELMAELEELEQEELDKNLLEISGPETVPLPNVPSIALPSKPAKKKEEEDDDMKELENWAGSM

Variants of: B1
Details: with chm4b_human CHMP4B

Variant | effect of a mutation on the interaction
I212D | disrupting interaction
